Test results reported in US20160145321A1.

Tests used:
Assay in all cases: cell-based or functional assay
[1] = biological target: G protein of RSV B/18537 (virus, ATCC Cat. No. VR-1580) (Respiratory syncytial virus B/18537) (UniProt P20896)
[2] = biological target: G protein of RSV A/Long (virus, ATCC Cat. No. VR-26) (Respiratory syncytial virus A/Long) (UniProt P20895)
[3] = biological target: G protein of RSV A/A2 (virus, ATCC Cat. No. VR-1540) (Respiratory syncytial virus A/A2) (UniProt P03423)

Substance: CR9514 (an antibody based on 3D3, comprising the heavy and light chain variable region of 3D3)
- Neutralization IC50 (plaque reduction assay, Vero cells) [1]: 0.033 µg/mL
- Neutralization IC50 (plaque reduction assay, Vero cells) [2]: 0.017 µg/mL
- Neutralization IC50 (plaque reduction assay, Vero cells) [3]: 0.0407 µg/mL
